Test results published in CN116284368A.
Blank lines part the entries; values can stand above or below the binder they belong to.

Target: T1, 临床全血样本裂解液中的MxA蛋白 (human) (UniProt P20591)
T1 sequence (looked up): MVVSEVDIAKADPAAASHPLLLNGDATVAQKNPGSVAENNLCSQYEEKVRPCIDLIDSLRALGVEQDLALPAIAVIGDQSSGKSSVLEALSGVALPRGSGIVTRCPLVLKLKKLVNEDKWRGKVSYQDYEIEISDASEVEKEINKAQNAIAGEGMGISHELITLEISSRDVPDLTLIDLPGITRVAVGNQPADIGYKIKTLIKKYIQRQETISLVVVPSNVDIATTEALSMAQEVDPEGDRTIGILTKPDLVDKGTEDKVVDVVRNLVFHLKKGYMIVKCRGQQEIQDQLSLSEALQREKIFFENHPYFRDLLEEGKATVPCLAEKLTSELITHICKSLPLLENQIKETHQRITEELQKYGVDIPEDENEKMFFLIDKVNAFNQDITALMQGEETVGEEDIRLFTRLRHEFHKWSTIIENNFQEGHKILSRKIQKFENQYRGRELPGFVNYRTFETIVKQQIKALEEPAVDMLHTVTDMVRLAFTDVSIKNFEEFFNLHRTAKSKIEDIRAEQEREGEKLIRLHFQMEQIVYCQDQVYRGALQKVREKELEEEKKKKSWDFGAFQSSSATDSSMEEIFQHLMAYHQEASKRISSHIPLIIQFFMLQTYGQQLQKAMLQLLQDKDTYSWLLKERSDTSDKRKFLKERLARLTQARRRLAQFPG
Assay: sandwich ELISA on clinical whole-blood lysates, antibody A coated (capture), antibody B-HRP detection

OD450: > 0.6 OD450
B1: 抗体A (MxA-A抗体) (antibody, V domains shown)
VH: EVQLVETGGGLVQPKGSLIVSCAASGFTFNRSAMNWVRQAPGKGLEWVARIRTKSNNYATYYADSVKDRFTISRDDSQSMLYLQMNNLKTEDTAMYYCVGGSDFAYWGQGTLVTVSA
VL: DIQMTQTTSSLSASLGDRVTISCRASQDISNYLNWFQQKPDGTVKLLIYYTSRLYSGVPSRFSGSGSGTDYSLTITNLEQEDIATYFCQQGNTLPLTFGAGTKLELK

OD450: > 0.6 OD450
B2: 抗体B (MxA-B抗体) (antibody, V domains shown)
VH: QVQLQQSGAELARPGASVKLSCKASGYTFTSYWILWLKQRPGQGLEWIGAVYPGDGDTRYTQKFKGKATLTADKSSSTAYMQLSSLASEDSAVYYCARGYDNSFDYWGQGTTLTVSS
VL: DVLMTQTPLSLPVSLGDQASISCRTSQTIVHSNGNTYLEWYLQKPGQSPKLLIYKVSNRFSGVPDRFSGSGSGTDFTLKISRVEAEDLGVYYCFQGSHVPPTFGAGTKLELK
